Assay results taken from US20070275898A1 (CENTRE NATIONAL DE LA RECHERCHE SCIENTIFIQUE, published 2007).

Biological target: β subunit of DNA polymerase III of Escherichia coli (Escherichia coli, UniProt P0A988 1-366)
Experiment: cell-based or functional assay

Sequence of β subunit of DNA polymerase III of Escherichia coli (P0A988 whole entry): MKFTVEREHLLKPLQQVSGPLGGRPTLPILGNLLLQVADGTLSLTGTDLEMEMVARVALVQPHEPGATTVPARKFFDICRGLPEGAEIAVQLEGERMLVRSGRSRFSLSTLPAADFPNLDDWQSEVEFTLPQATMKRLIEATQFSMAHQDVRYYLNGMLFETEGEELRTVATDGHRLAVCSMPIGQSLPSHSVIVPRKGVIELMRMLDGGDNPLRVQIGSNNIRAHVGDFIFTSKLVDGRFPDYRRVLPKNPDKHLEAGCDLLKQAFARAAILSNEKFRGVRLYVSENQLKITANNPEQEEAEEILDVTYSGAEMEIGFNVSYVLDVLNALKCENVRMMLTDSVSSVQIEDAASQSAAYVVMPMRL

- β-dependent Pol IV activity (ratio of β-dependent to β-independent polymerase activities): ~30 fold decrease
Binder: VTLLDPQMERQLVLGL [P16 peptide, the 16 last residues of Pol IV DNA polymerase of E. coli]
